Paper PMC5548120

Molecular target: T1, rat TRPV2 (transient receptor potential vanilloid 2), full-length, with a 1D4-tag (rat), Q9WUD2
T1 chain: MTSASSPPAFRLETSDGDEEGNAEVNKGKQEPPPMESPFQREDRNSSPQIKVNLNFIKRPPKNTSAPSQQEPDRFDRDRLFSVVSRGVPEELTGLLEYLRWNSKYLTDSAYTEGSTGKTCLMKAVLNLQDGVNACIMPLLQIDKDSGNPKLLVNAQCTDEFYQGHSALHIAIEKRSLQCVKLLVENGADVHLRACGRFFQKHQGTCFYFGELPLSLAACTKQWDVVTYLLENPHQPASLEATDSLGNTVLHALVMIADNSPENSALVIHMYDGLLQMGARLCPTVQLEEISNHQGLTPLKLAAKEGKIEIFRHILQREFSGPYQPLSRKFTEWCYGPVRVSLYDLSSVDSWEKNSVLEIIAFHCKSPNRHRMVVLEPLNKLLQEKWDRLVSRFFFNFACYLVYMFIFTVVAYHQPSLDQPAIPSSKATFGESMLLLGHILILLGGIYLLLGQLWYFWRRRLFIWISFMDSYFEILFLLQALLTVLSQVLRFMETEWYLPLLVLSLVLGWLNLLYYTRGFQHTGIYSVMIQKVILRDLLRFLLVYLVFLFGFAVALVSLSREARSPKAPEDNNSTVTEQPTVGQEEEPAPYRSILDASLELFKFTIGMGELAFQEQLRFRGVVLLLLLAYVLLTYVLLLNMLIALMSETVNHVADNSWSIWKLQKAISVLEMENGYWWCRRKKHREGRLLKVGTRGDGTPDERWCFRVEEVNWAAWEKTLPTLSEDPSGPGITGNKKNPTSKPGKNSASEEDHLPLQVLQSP
Assay: SEC + native gel or EMSA
Settings: remark: other sources report otherwise

B1: rat TRPV2 (transient receptor potential vanilloid 2), full-length, with a 1D4-tag, Q9WUD2 1-761 (natural protein)
chain: MTSASSPPAFRLETSDGDEEGNAEVNKGKQEPPPMESPFQREDRNSSPQIKVNLNFIKRPPKNTSAPSQQEPDRFDRDRLFSVVSRGVPEELTGLLEYLRWNSKYLTDSAYTEGSTGKTCLMKAVLNLQDGVNACIMPLLQIDKDSGNPKLLVNAQCTDEFYQGHSALHIAIEKRSLQCVKLLVENGADVHLRACGRFFQKHQGTCFYFGELPLSLAACTKQWDVVTYLLENPHQPASLEATDSLGNTVLHALVMIADNSPENSALVIHMYDGLLQMGARLCPTVQLEEISNHQGLTPLKLAAKEGKIEIFRHILQREFSGPYQPLSRKFTEWCYGPVRVSLYDLSSVDSWEKNSVLEIIAFHCKSPNRHRMVVLEPLNKLLQEKWDRLVSRFFFNFACYLVYMFIFTVVAYHQPSLDQPAIPSSKATFGESMLLLGHILILLGGIYLLLGQLWYFWRRRLFIWISFMDSYFEILFLLQALLTVLSQVLRFMETEWYLPLLVLSLVLGWLNLLYYTRGFQHTGIYSVMIQKVILRDLLRFLLVYLVFLFGFAVALVSLSREARSPKAPEDNNSTVTEQPTVGQEEEPAPYRSILDASLELFKFTIGMGELAFQEQLRFRGVVLLLLLAYVLLTYVLLLNMLIALMSETVNHVADNSWSIWKLQKAISVLEMENGYWWCRRKKHREGRLLKVGTRGDGTPDERWCFRVEEVNWAAWEKTLPTLSEDPSGPGITGNKKNPTSKPGKNSASEEDHLPLQVLQSP
With B1 the stoichiometry N was 4.
